According to patent US20210079083A1 (INSTITUTE FOR BASIC SCIENCE, published 2021):

T1: Human Angiopoietin-2 full-length (hAng2) (human, UniProt O15123 19-496)
T1 construct: The cell assays used full-length hAng2 from R&D Systems; also called human Ang2; A2
T1 sequence: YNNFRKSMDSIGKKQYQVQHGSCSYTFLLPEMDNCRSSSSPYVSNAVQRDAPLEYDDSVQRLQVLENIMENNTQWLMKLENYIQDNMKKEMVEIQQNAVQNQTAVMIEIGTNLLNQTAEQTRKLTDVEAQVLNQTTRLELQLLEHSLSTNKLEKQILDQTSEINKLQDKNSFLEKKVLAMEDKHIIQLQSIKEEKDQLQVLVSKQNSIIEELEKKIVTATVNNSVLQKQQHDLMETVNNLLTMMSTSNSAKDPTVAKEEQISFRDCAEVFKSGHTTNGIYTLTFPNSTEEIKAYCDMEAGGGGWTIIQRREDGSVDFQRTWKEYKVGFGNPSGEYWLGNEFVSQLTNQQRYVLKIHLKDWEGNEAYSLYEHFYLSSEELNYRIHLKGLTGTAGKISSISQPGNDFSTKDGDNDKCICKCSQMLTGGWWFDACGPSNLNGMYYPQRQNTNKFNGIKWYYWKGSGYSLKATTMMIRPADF

T2: mouse Ang2 (mAng2) (mouse, UniProt O35608 19-496, limits assumed)
T2 construct: Coated on the ELISA plate; also called recombinant mAng2
T2 sequence (looked up): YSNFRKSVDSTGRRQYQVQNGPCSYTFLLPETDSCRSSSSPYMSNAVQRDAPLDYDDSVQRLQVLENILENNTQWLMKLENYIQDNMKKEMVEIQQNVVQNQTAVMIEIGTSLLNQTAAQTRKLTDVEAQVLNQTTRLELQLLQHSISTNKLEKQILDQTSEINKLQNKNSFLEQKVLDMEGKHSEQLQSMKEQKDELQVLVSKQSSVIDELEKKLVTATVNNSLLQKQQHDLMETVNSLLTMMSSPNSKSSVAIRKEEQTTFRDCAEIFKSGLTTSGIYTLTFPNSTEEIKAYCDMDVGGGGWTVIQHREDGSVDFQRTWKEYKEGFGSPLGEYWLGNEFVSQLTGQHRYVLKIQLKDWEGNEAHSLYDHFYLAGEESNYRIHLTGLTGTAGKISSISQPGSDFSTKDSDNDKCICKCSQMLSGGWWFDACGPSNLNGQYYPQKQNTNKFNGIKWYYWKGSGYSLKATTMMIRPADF


Columns and labels:
[1] = target: T1, Human Angiopoietin-2 full-length (hAng2); experiment: BLI (Octet), hAng2 fixed on AR2G sensor, antibody 3.125-50 nM in solution, 1:1 global fit
Description: (§1) The affinity of mouse monoclonal antibody against hAng2 was measured using Octet system (ForteBio). Specifically, buffer and samples were measured in total 200 μl/well using Black 96-well plates (96 well F-type black plates, Greiner). […] After the hydration, hAng2 was diluted in 10 mM sodium acetate, pH 6.0 buffer at a concentration of 10 μg/ml, fixed on AR2G biosensor, and blocked with 1M ethanolamine. The mouse monoclonal anti-Ang2 antibodies were diluted to 50, 25, 12.5, 6.25, 3.125, and 0 nM with 1× kinetic buffer, and subjected to association for 300 seconds and dissociation for 900 seconds.

[2] = target: T1, Human Angiopoietin-2 full-length (hAng2); experiment: BLI (Octet), antibody fixed on AR2G sensor, hAng2 3.125-50 nM in solution, 1:1 global fit
Description: as §1, with “of humanized anti-Ang2” for “of mouse monoclonal”, “hydration, humanized anti-Ang2 antibody” for “hydration, hAng2”, “The recombinant hAng2 was” for “The mouse monoclonal anti-Ang2 antibodies were”, “300 sec” for “300 seconds”, “900 sec.” for “900 seconds.”
The affinities of humanized 2C8 antibodies to hAng2 were in Table 15.

mouse Ang2 (mAng2) = target: T2, mouse Ang2 (mAng2); experiment: ELISA, mAng2 coated at 20 ng per well, detection with anti-human IgG (Fab)-HRP
Description: FIG. 8. EC₅₀ values of anti-Ang2 antibodies against mouse Ang2 by ELISA. The binding affinities of humanized anti-Ang2 antibodies for mouse Ang2 (mAng2) were measured by analyzing EC₅₀ with ELISA. The recombinant mAng2 was coated and incubated with serially diluted anti-Ang2 antibodies, 4B9H11 and 2C8H11. Next, the plate was reacted with anti-human IgG (Fab)-HRP secondary antibody. The plate was treated with TMB solution and absorbance was measured at 450 nm. EC₅₀ value was analyzed using PerkinElmer's WorkOut 2.5 program.
The affinity of humanized antibodies for mouse Ang2 (mAng2) was analyzed by ELISA. Specifically, mAng2 was diluted in 30 μl of a coating buffer (0.1 M sodium carbonate buffer) at 20 ng per well in a half 96-well plate (Corning 3690) and incubated overnight at 4° C. After washing with TBS-T solution for 3 times, the well plate was blocked with 3% skim milk at room temperature for 1 hr and then washed again. 2C8H11 and 4B9H11 were serially diluted from […] to 300 ng/ml. After loading 30 μl of the diluted ant-Ang2 antibodies into wells, the well plate was incubated at room temperature for 2 hrs. […] After developing for 5 min, the plate was treated with 1N sulfuric acid to stop the reaction, and absorbance was measured at 450 nm. Based on the measured OD value, the EC₅₀ value was analyzed using PerkinElmer's WorkOut 2.5 program.

Row | Binder | Kd [1] [nM] | koff [1] [s⁻¹] | kon [1] [M⁻¹ s⁻¹] | Kd [2] [nM] | koff [2] [s⁻¹] | kon [2] [M⁻¹ s⁻¹] | EC50 (mouse Ang2 (mAng2)) [mg/L]
1 | mouse anti-Ang2 antibody 2C8 (antibody, V domains shown) VH: QVQLQQSGPQLVRPGASVKISCKASGYSFTSYWMHWVKQRPGQGLEWIGMIDPSDSETRLNQKFKDKASLTVDKSSSTAYMQLSSPTSGDSAVYYCARRFYYGSDWYFDVWGAGSTVTVSS VL: DIVMTQSHKFMSTSVGDRVSITCKASQDVGTAVAWYQQKPGQSPKLLIYWASTRHTGVPDRFTGSGSGTDFTLTISNVQSEDLADYFCQQYSSYPLTFGSGTKLEIK | 0.0455 | 3.54e-06 | 77800 | – | – | – | –
2 | mouse anti-Ang2 antibody 4E2 (antibody, V domains shown, Mouse monoclonal antibody from a hybridoma, purified on Protein G) VH: EVQLQQSGPELEKPGASVKISCKASGYSFTGYNMNWVKQSNGKSLEWIGNIDPYYGGTSYNQKFKGKATLTVDKSSSTAYMQLKSLTSEDSAVYYCVRYGNYVDYWGQGTTLTVSS VL: DIVMTQSHKFMSTSVGDRVSITCKASQDVSTAVAWYQQKPGQSPKLLIYWASTRHTGVPDRFTGSGSGTDYTLTISSVQAEDLALYYCQQHYNTPPTFGSGTKLEIK | 4.74 | 0.000134 | 28300 | – | – | – | –
3 | humanized anti-Ang2 antibody 2C8H11 (antibody, V domains shown, Full-length human IgG1) VH: QVQLVQSGAEVKKPGASVKVSCKASGYTFTSYWMHWVRQAPGQGLEWMGMIDPSDSETRLNQKFKDRVTMTRDTSTSTVYMELSSLRSEDTAVYYCARRFYYGSDWYFDVWGQGTLVTVSS VL: DIQLTQSPSFLSASVGDRVTITCKASQDVGTAVAWYQQKPGKAPKLLIYWASTRHTGVPSRFSGSGSGTEFTLTISSLQPEDFATYYCQQYSSYPLTFGQGTKVEIK | – | – | – | 0.212 | 1.4e-05 | 66000 | 97
4 | humanized anti-Ang2 antibody 4B9H11 (antibody, V domains shown, Full-length human IgG1) VH: QVQLVESGGGLVKPGGSLRLSCAASGFTFSDYYMYWIRQAPGKGLEWVSTISVGGSFTYYPDSVKGRFTISRDNAKNSLYLQMNSLRAEDTAVYYCARDWGLRPWFVYWGQGTLVTVSS VL: DIQMTQSPSSLSASVGDRVTITCKASQDVSTAVAWYQQKPGKAPKLLIYWASTRHTGVPSRFSGSGSGTDFTLTISSLQPEDFATYYCQQHYSTPPTFGQGTKVEIK | – | – | – | 0.0171 | 1.58e-06 | 92900 | 105
5 | humanized anti-Ang2 antibody 4B9H31 (antibody, V domains shown, Full-length human IgG1) VH: QVQLVESGGGLVKPGGSLRLSCAASGFTFSDYYMYWVRQAPGKGLEWVATISVGGSFTYYPDSVKGRFTISRDNAKNSLYLQMNSLRAEDTAVYYCARDWGLRPWFVYWGQGTLVTVSS VL: DIQMTQSPSSLSASVGDRVTITCKASQDVSTAVAWYQQKPGKAPKLLIYWASTRHTGVPSRFSGSGSGTDFTLTISSLQPEDFATYYCQQHYSTPPTFGQGTKVEIK | – | – | – | 0.167 | 1.56e-05 | 93900 | –
6 | mouse anti-Ang2 antibody 2F10 (antibody, V domains shown, Mouse monoclonal antibody from a hybridoma, purified on Protein G) VH: QVQLVESGGGLVKPGGSLKLSCAASGFTFSDYYMYWIRQTPEKRLEWVATINDGGSYTYYPDSVKGRFTISRDNAKNNLYLQMSSLKSEDTAMYYCARDWGLRPWFVYWGQGTLVTVSA VL: DIVMTQSHKFMSTSVGDRVSITCKASQDVSTAVAWYQQKPGQSPKLLIYWASTRHTGVPDRFTGSGSGTDYTLTISSVQAEDLALYYCQQHYTTPPTFGSGTKLEIK | 0.138 | 1.71e-05 | 124000 | – | – | – | –
7 | mouse anti-Ang2 antibody 4B9 (antibody, V domains shown, Mouse monoclonal antibody from a hybridoma (KCLRF-BP-00418), purified on Protein G) VH: EVQLVESGGGLVKPGGSLKLSCAASGFTFSDYYMYWVRQTPEKRLEWVATISVGGSFTYYPDSVKGRFTISRDNAKNNLYLQMSSLKSEDTAMYYCARDWGLRPWFVYWGQGTLVTVSA VL: DIVMTQSHKFMSTSVGDRVSITCKASQDVSTAVAWYQQKPGQSPKLLIYWASTRHTGVPDRFTGSGSGTDYTLTISSVQAEDLALYYCQQHYSTPPTFGSGTKLEIK | 0.00368 | 5.04e-07 | 137000 | – | – | – | –
